Data on one molecule can be found in US5547935A (Chiron Corporation, priority 1994, dated 1996).

Experiment [1] deals with Human foreskin fibroblasts. In words: Mitogenicity: 3H-thymidine incorporation. Format: cell-based. The method, then: Mitogenicity was assayed substantially following the method described by D. J. Knauer et al, J Biol Chem (1984) 259:5623-31.
Human foreskin fibroblasts were obtained and frozen at the thirteenth passage. Thawed cells are trypsinized, pelleted, and resuspended in a medium containing DMEM, 5% FBS, 1 mM sodium pyruvate, 300 μg/mL L-glutamine, 100 U/mL penicillin, and 100 μg/mL streptomycin. The cells are counted using a hemocytometer and 0.4% trypan blue. The cell concentration is adjusted to 1×10^-5 cells/mL using the same medium, and dispensed onto microtiter plates (100 μL/well). The plates are incubated for 5 days in a tissue culture incubator.
EGF muteins prepared in Example 1 and native sequence EGF are dissolved to make 100 μg/mL solutions. These solutions are used to make serial dilutions of 20, 10, 5, 2.5, 1.25, 0.625, 0.3125, 0.15625, 0.078125, 0.0390625, 0.0195, and 0.00975 ng/mL. Ten μL of each dilution is added to a microtiter plate well, and the plates returned to the incubator and incubated at 37° C. for 18 hours. […]
The well contents are then solubilized using 0.3 N NaOH (50 μL/well) for 30 minutes, and transferred to scintillation vials. Scintillation fluid (Ready-Solv EP, 4 mL) is then added to each vial, and the vials counted for 1 min with a 0-1,000 (^3 H) window in a Beckman LS3801 counter.
For orientation: Dividing cells build labelled thymidine or BrdU into new DNA.

For experiment [2], the target named is T1, EGF receptor on fixed A431 cells (Homo sapiens, UniProt P00533).
T1 construct: Confluent A43 1 cells were fixed in 96-well microtiter plates using 0.05% formaldehyde; endogenous in cells; host or cells: A431 cells, formaldehyde-fixed
In words: Receptor affinity: binding to fixed A431 cells. Conditions: 1 nM, 2 hr at 37° C. The method, then:
Confluent A43 1 cells were fixed in 96-well microtiter plates using 0.05% formaldehyde for 10 min at room temperature, then washed 3× with 200 μL PBS with 0.1% bovine serum albumin (BSA).
The wells were then washed 3× with 200 μL of PBS/0.1% BSA, detached, and counted in a gamma counter.

B1: .phi.EFG: EGF with N-terminal flag extension, additional sequence DWKDDDDK (protein)
chain: DWKDDDDKPQHWSCPEGTLAGNGNSTCVGPAPFLIFSHGNSIFRIDTEGTNYEQLVVDAGVSVIMDFHYNEKRIYWVDLERQLLQRVFLNGSRQERVCNIEKNVSGMAINWINEEVIWSNQQEGIITVTDMKGNNSHILLSALKYPANVAVDPVERFIFWSSEVAGSLYRADLDGVGVKALLETSEKITAVSLDVLDKRLFWIQYNREGSNSLICSCDYDGGSVHISKHPTQHNLFAMSLFGDRIFYSTWKMKTIWIANKHTGKDMVRINLHSSFVPLGELKVVHPLAQPKAEDDTWEPEQKLCKLRKGNCSSTVCGQDLQSHLCMCAEGYALSRDRKYCEDVNECAFWNHGCTLGCKNTPGSYYCTCPVGFVLLPDGKRCHQLVSCPRNVSECSHDCVLTSEGPLCFCPEGSVLERDGKTCSGCSSPDNGGCSQLCVPLSPVSWECDCFPGYDLQLDEKSCAASGPQPFLLFANSQDIRHMHFDGTDYGTLLSQQMGMVYALDHDPVENKIYFAHTALKWIERANMDGSQRERLIEEGVDVPEGLAVDWIGRRFYWTDRGKSLIGRSDLNGKRSKIITKENISQPRGIAVHPMAKRLFWTDTGINPRIESSSLQGLGRLVIASSDLIWPSGITIDFLTDKLYWCDAKQSVIEMANLDGSKRRRLTQNDVGHPFAVAVFEDYVWFSDWAMPSVMRVNKRTGKDRVRLQGSMLKPSSLVVVHPLAKPGADPCLYQNGGCEHICKKRLGTAWCSCREGFMKASDGKTCLALDGHQLLAGGEVDLKNQVTPLDILSKTRVSEDNITESQHMLVAEIMVSDQDDCAPVGCSMYARCISEGEDATCQCLKGFAGDGKLCSDIDECEMGVPVCPPASSKCINTEGGYVCRCSEGYQGDGIHCLDIDECQLGEHSCGENASCTNTEGGYTCMCAGRLSEPGLICPDSTPPPHLREDDHHYSVRNSDSECPLSHDGYCLHDGVCMYIEALDKYACNCVVGYIGERCQYRDLKWWELRHAGHGQQQKVIVVAVCVVVLVMLLLLSLWGAHYYRTQKLLSKNPKNPYEESSRDVRSRRPADTEDGMSSCPQPWFVVIKEHQDLKNGGQPVAGEDGQAADGSMQPTSWRQEPQLCGMGTEQGCWIPVSSDKGSCPQVMERSFHMPSYGTQTLEGGVEKPHSLLSANPLWQQRALDPPHQMELTQ
Take B1: the Mitogenicity in experiment [1] is 56 percentage of control (EGF). For the same molecule, the Affinity in experiment [2] was 32 percentage of control (EGF).
